Common to all, as to assay: fluorescence anisotropy; 20 mM Tris pH 8.0, 50 mM NaCl, 10 nM DY-547 RNA; temperature not stated
For orientation: Fluorescence polarisation rises when a labelled molecule tumbles more slowly, as on binding a larger partner.

The target of one series is T1, Mex67ΔUBA;Mtr2 (Saccharomyces cerevisiae;Saccharomyces …, UniProt Q99257;P34232 1-487;1-184, |).
T1 sequence 1: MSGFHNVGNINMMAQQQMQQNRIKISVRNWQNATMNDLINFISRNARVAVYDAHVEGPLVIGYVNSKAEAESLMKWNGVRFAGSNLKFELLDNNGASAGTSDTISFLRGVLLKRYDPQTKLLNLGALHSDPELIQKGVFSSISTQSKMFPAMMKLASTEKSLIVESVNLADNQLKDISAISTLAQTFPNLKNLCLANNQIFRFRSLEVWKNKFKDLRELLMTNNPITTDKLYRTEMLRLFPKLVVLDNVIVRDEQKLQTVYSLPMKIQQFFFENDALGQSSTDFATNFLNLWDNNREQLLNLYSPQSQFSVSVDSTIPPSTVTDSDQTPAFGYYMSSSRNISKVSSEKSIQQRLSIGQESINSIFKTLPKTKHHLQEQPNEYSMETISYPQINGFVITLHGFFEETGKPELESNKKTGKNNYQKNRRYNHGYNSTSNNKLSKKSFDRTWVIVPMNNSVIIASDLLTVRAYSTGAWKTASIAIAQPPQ
T1 sequence 2: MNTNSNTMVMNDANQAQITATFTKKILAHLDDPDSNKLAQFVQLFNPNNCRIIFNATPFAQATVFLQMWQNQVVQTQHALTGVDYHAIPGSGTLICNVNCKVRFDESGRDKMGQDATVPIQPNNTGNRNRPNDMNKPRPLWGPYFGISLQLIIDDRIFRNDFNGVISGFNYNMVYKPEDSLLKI
The note with it: protein: recombinant;recombinant; tags: His6 removed by TEV;; copies: 1;1.

The target of series [1] is T2, Mex67 (full length):Mtr2;Mtr2 (Saccharomyces cerevisiae;Saccharomyces …, UniProt Q99257;P34232 1-599;1-184, |).
T2 sequence 1: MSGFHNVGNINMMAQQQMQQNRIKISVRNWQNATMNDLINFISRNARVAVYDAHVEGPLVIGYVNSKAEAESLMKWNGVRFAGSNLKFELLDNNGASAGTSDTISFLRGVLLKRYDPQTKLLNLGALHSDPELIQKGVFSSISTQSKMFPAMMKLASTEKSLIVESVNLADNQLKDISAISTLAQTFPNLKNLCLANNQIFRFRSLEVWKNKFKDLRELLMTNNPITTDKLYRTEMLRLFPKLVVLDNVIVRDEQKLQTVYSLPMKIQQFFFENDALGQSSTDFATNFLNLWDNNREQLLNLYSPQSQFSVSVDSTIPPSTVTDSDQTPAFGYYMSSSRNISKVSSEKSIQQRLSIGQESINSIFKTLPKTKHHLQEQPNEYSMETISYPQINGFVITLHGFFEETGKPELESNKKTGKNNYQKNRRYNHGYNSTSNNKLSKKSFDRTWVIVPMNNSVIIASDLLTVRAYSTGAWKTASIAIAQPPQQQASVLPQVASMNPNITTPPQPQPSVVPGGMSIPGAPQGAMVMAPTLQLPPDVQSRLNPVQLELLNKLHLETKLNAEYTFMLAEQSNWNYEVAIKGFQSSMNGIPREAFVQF
T2 sequence 2: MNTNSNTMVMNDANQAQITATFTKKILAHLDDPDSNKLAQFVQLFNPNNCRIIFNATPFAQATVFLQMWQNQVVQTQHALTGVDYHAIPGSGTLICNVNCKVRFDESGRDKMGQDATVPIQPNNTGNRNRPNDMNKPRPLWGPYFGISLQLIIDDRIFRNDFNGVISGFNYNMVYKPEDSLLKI
The conditions noted are these: protein: recombinant;recombinant, tags: His6 removed by TEV;, copies: 1;1.

Series [2] concerns the target T3, Mex67ΔUBA L263D+M265D;Mtr2 (Saccharomyces cerevisiae;Saccharomyces …, UniProt Q99257;P34232 1-487;1-184, L263D;M265D|).
T3 sequence 1: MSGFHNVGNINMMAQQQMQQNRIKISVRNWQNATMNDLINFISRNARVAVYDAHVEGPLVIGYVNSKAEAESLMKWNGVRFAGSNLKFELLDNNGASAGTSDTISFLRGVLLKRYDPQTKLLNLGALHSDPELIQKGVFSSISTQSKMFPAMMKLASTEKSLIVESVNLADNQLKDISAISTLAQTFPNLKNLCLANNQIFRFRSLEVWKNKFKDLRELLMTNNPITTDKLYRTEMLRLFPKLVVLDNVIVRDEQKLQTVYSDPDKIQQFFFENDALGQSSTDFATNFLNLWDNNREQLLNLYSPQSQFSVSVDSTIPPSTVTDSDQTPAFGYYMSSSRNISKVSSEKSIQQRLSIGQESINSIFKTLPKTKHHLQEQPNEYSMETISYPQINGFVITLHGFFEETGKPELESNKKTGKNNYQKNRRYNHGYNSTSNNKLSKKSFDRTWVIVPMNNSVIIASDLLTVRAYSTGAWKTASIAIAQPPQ
T3 sequence 2: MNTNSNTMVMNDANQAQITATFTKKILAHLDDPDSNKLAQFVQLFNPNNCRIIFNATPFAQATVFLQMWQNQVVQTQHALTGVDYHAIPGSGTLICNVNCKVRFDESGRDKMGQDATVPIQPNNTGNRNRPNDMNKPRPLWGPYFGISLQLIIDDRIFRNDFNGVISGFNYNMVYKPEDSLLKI
The note with it: protein: recombinant;recombinant; tags: His6 removed by TEV;; copies: 1;1.

The next series deals with T4, Mex67NTF2L;Mtr2 (Saccharomyces cerevisiae;Saccharomyces …, UniProt Q99257;P34232 264-487;1-184, |).
T4 sequence 1: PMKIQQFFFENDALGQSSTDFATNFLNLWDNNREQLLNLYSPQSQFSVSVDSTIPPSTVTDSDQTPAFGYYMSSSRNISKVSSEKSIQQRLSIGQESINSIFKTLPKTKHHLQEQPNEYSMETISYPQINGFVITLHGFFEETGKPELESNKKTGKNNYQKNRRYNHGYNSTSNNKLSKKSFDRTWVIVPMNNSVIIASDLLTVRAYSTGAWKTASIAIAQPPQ
T4 sequence 2: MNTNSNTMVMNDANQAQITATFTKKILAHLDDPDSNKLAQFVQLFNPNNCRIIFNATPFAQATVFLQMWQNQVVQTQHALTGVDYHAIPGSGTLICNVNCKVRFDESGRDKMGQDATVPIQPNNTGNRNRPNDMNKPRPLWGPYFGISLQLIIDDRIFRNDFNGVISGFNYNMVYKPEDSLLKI
The conditions noted are these: protein: recombinant;recombinant; tags: His6 removed by TEV;; copies: 1;1.

For series [3], the target named is T5, Mex67ΔUBA L263A+M265A;Mtr2 (Saccharomyces cerevisiae;Saccharomyces …, UniProt Q99257;P34232 1-487;1-184, L263A;M265A|).
T5 sequence 1: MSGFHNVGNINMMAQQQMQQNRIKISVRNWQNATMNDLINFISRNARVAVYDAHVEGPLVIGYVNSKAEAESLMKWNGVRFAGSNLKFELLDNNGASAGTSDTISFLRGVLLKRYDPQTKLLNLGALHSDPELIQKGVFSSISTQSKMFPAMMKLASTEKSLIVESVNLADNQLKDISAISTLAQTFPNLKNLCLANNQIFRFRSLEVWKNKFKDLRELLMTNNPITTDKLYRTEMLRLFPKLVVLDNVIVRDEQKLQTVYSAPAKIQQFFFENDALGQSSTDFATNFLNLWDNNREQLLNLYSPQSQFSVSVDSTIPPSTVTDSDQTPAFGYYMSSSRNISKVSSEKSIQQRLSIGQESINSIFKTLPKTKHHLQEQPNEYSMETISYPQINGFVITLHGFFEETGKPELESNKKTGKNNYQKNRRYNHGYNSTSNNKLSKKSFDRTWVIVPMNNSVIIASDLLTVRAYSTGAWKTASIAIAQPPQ
T5 sequence 2: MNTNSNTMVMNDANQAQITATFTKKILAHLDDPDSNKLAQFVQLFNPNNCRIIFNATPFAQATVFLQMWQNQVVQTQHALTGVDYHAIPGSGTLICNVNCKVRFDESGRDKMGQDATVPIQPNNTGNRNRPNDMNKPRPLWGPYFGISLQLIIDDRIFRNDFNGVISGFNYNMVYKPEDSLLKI
The conditions noted are these: protein: recombinant;recombinant; tags: His6 removed by TEV;; copies: 1;1.

The next series deals with T6, Mex67RRM-LRR (Saccharomyces cerevisiae, UniProt Q99257 2-262).
T6 sequence: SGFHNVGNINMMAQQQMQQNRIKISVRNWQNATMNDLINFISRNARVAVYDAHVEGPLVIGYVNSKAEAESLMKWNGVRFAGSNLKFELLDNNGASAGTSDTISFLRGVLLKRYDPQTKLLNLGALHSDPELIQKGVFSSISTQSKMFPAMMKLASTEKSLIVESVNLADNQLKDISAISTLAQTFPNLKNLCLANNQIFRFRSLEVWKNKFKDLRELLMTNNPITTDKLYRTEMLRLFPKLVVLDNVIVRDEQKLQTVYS
The conditions noted are these: protein: recombinant; tags: His6 removed by TEV.

The next series addresses T7, Mex67LRR-NTF2L;Mtr2 (Saccharomyces cerevisiae;Saccharomyces …, UniProt Q99257;P34232 101-487;1-184, |).
T7 sequence 1: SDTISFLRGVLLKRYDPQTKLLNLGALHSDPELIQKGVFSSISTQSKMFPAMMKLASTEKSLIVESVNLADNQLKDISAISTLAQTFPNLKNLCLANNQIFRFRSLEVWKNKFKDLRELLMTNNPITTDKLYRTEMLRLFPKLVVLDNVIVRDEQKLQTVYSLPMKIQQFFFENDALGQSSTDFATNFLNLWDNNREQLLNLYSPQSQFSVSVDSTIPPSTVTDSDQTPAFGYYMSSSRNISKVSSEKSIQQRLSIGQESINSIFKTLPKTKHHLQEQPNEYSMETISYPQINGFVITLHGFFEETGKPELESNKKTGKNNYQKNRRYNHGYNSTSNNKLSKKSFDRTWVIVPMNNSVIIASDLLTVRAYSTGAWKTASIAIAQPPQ
T7 sequence 2: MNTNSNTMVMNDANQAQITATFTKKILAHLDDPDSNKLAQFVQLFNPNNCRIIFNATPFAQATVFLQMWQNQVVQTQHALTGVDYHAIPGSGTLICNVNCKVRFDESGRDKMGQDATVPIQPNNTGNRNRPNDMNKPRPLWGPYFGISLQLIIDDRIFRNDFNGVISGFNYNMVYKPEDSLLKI
The note with it: protein: recombinant;recombinant; tags: His6 removed by TEV;; copies: 1;1.

Series [4] deals with T8, Mex67ΔUBA L263Y+M265Y;Mtr2 (Saccharomyces cerevisiae;Saccharomyces …, UniProt Q99257;P34232 1-487;1-184, L263Y;M265Y|).
T8 sequence 1: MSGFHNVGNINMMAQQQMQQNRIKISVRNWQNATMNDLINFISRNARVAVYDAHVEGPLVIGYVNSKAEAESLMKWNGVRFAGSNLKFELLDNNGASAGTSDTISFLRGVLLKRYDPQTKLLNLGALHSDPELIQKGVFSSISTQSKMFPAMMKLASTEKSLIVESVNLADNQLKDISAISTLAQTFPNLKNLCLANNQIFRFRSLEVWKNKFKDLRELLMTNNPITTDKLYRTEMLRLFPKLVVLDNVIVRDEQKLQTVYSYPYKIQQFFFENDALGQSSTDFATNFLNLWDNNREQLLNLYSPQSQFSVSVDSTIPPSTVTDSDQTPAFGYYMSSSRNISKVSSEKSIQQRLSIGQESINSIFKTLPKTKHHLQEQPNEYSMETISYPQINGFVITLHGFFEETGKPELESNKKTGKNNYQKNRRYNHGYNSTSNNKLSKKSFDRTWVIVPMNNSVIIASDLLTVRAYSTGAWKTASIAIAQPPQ
T8 sequence 2: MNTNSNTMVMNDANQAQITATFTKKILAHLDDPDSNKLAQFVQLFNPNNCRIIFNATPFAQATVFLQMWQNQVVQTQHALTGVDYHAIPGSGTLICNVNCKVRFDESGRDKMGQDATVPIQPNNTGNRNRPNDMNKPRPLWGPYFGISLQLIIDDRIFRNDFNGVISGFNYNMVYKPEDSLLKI
The conditions noted are these: protein: recombinant;recombinant; tags: His6 removed by TEV;; copies: 1;1.

Results on 2 molecules are retold here after paper PMC4330389, “Domain organization within the nuclear export factor Mex67:Mtr2 generates an extended mRNA binding surface”.

In the case of AAAAAAAAAAAAAAA (ssRNA) [A15], the Kd with Mex67ΔUBA;Mtr2 turned out to be 310 nM; in series [1], 260 nM; in series [2] it was 820 nM; in the series with Mex67NTF2L;Mtr2, 860 nM; in series [3], 640 nM; in the series with Mex67RRM-LRR, 12000 nM. Also, the figures for the Kd (with Mex67LRR-NTF2L;Mtr2; in series [4]) were 340 nM and 420 nM, respectively.
In the case of GGGGGGGGGGGGGGG (ssRNA) [G15], the binding result in series [1] (may form higher order structure) was “binds”.

In general, Kd refers to the constant that tells how readily two partners part at equilibrium.
